Assay results taken from article PMC11342335 (2024).

Molecular target: human sortilin (R&D Systems, 3154-ST) (human, UniProt Q99523 78-755)
Assay: SPR

Chain of human sortilin (R&D Systems, 3154-ST) (Q99523 78-755): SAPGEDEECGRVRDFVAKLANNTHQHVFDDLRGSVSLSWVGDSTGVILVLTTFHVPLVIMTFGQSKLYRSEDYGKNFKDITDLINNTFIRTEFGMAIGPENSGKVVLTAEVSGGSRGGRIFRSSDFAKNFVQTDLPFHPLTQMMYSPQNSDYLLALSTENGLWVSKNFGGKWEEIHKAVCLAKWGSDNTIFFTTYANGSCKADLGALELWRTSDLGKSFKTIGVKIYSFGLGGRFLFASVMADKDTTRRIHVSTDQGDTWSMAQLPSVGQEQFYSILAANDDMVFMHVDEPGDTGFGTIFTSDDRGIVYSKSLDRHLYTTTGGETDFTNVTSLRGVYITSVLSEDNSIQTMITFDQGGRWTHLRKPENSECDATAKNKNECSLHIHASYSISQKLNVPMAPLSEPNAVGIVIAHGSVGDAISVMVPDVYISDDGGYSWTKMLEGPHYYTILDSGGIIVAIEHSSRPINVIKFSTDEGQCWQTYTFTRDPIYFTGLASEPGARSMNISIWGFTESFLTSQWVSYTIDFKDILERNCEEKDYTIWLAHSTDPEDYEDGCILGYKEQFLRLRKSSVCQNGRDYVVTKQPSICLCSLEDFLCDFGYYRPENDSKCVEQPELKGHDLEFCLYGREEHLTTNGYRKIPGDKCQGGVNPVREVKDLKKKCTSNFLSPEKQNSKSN

Kd: 26 nM
B1: ABD-PGRNC21* (His6-ABD035-PGRNC21*) (peptide)
chain: LRREAPRWDAPLRDPGLRQLL
